Measurements from patent US7217700.

Assays:
CCR6 (human) = molecular target: T1, CCR6 (human) (UniProt P51684); experiment: cell-based or functional assay
T1 sequence (looked up): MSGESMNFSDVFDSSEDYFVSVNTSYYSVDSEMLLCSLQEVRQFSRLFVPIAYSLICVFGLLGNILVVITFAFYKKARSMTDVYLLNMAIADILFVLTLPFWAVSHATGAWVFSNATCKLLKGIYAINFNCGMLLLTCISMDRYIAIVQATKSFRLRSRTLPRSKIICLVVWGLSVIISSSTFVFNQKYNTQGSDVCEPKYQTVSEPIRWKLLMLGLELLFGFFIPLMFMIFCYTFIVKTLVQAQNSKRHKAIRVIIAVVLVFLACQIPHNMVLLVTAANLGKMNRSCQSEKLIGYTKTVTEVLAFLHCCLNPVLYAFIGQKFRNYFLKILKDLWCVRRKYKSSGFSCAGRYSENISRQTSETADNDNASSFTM

CCR7 (human) = CCR7 (human) (UniProt P32248); experiment: cell-based or functional assay
Chain of UniProt P32248 (P32248 25-378): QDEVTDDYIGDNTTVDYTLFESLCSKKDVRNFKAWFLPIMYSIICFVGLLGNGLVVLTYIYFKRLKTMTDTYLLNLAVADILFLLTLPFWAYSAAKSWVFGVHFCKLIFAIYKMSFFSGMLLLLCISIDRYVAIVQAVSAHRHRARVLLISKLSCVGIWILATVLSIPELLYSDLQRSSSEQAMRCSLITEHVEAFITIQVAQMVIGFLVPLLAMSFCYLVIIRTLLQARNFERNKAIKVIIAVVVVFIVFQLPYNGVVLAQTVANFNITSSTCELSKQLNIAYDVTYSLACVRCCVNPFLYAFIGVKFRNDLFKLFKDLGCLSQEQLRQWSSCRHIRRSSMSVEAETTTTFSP

| Ca2+ flux (Indo-1 fluorimetry) in immature CD34+-derived DC; concentration giving the maximal flux (CCR6 (human)) | chemotaxis (Boyden microchamber) of DC precursors (CD1a-CD86-); concentration at which the response is detected (CCR6 (human)) | chemotaxis (Boyden microchamber) of immature DC (CD1a+CD86-); concentration needed to attract the cells (CCR6 (human)) | Ca2+ flux (Indo-1 fluorimetry) in mature CD34+-derived DC; concentration giving the maximal flux (CCR7 (human)) | chemotaxis (Boyden microchamber) of mature DC (CD1a+CD86+); concentration needed to recruit the cells (CCR7 (human)) | chemotaxis of CD40L-activated CD34+-derived DC; concentration required at 48 h (CCR7 (human)) | Substance |
| --- | --- | --- | --- | --- | --- | --- |
| 30 ng/mL | 1 to 10 ng/mL | > 300 ng/mL | – | – | – | Recombinant human MIP-3α (from UniProt P78556 27-96) (ligand) |
| – | – | – | 30 ng/mL | 300 ng/mL | 100 to 300 ng/mL | Recombinant human MIP-3β (from UniProt Q99731 22-98) (ligand) |
